Data from patent publication US20150274802A1.

Experiments:
type B insulin receptor = type B insulin receptor (UniProt P06213); assay: cell-based or functional assay
type A insulin receptor [1] = target: type A insulin receptor (UniProt P06213); assay: cell-based or functional assay
type A insulin receptor [2] = target: type A insulin receptor (UniProt P06213); assay: binding assay
type A insulin receptor [3] = target: type A insulin receptor (UniProt P06213); assay: competitive binding SPA, [125I]insulin

With “#31: IGF-2 analog B^2-C^2[K8]-A^2-D^2[R4] (from UniProt P01344 25-91) (ligand)” the potency (type B insulin receptor) was 2 fold and the potency (type A insulin receptor [1]) was 2 fold.

For “Insulin analog B^1[H5Y16L17O22R29]29:A^1[O9,14,15N18,21] (ligand)”, the % activity (binding assay) (type A insulin receptor [2]) was 55%.

“#48: Cys^B1-Cys^B1 #2* dimer, B^1[C1H5Y16L17O22R29]29:A^1[O9,14,15N18,21] (ligand)” was tested, and the % receptor activity (binding assay) (type A insulin receptor [3]) was 147% and the % receptor activity, phosphorylation assay (type A insulin receptor [1]) was 102%.

“Cys-Cys^B1 peptide (analog #2* with Cys^B1 disulfide-bonded to free cysteine) (ligand)” showed a % activity (binding assay) (type A insulin receptor [3]) of 55.4% and a % activity, phosphorylation assay (type A insulin receptor [1]) of 23.1%.
